Results from the nanobody polyreactivity screen of Harvey et al. (2022).

Experiment: yeast display, Sf9 membrane polyspecificity reagent, FACS + sequencing; frameworks hold sequencing errors
Method in brief: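 Synthetic nanobody libraries on Saccharomyces cerevisiae BJ5465 were galactose-induced for 36–48 hours, stained 1 hour at 4 °C with 10% biotinylated, detergent-solubilized Sf9 membrane reagent and enriched on streptavidin microbeads. FACS then separated cells into low and high (top ~1%) gates by anti-HA (expression) and streptavidin (reagent binding) fluorescence. Genes were colony-PCR amplified, MiSeq 2 × 250 sequenced and CDR-length filtered. A clone's polyreactivity label is that of its gate of origin.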

## QVQLVESGGGLVQAGGSLRLSCAASGIIFTDYAMGWYRQAPGKERELVAAISSGGGSTYYADSVKGRFTISRDNAKNTVYLQMNSLKPEDTAVYYCAAEGYLISGAGDYLYDYYWGQGTQVTVSS
  polyreactivity (PSR sort gate): high polyreactivity

## QVQLVESGGGLVQAGGSLRLSCAASGIIFTINAMGWYRQAPGKERELVAAISWGTGTTYYADSVKGRFTISRDNAKNTVYLQINSLKPEDTAVYYCAADGYDTYGYWGQGTQVTVSS
  polyreactivity (PSR sort gate): low polyreactivity

## QVQLVESGGGLVQAGGSLRLSCAASGIIFTINAMGWYRQAPGKERELVARISRSVGSTTYADSVKGRFTISRDNAKNTVYLQMNSLKPEDTAVYYCAAQPYGYSYHYHRPWGLDYWGQGTQVTVSS
  polyreactivity (PSR sort gate): low polyreactivity

## QVQLVESGGGLVQAGGSLRLSCAASGIIFTIYTMGWYRQAPGKERELVAAITRSGGSTYYADSVKGRFTISRDNAKNTVYLQMNSLKPEDTAVYYCAAEWQYPDGDDVGSWRYYYWGQGTQVTVSS
  polyreactivity (PSR sort gate): high polyreactivity

## QVQLVESGGGLVQAGGSLRLSCAASGIIFTTYDMGWYRQAPGKERELVAAISSSTTNTYYADSVKGRFTISRDNAKNTVYLQMNSLKPEDTAVYYCAADGYSLDRYEYWGQGTQVTVSS
  polyreactivity (PSR sort gate): low polyreactivity

## QVQLVESGGGLVQAGGSLRLSCAASGIIFTYAMGWYRPAPGKERELVAAIDWRGGRTYYADSVKGRFTISRDNAKNTVYLQMNSLKPEDTSVYYCGARLPGGTYYWGQGTQVTVSS
  polyreactivity (PSR sort gate): high polyreactivity

## QVQLVESGGGLVQAGGSLRLSCAASGIIFTYAMGWYRQAPGKERELVAAIDWRGGRTYYADSVKGRFTISRDNAKNNVYLQMNSLKPEDTAVFFCAARLPGGTYYWGQGTQVTVSS
  polyreactivity (PSR sort gate): high polyreactivity

## QVQLVESGGGLVQAGGSLRLSCAASGIIFVDYAMGWYRQAPGKEREFVAAITWSGGSTRYADSVKGRFTISRDNAKNTVYLQMNSLKPEDTAVYYCAALGYNVSSRGYYYWGQGTQVTVSS
  polyreactivity (PSR sort gate): low polyreactivity

## QVQLVESGGGLVQAGGSLRLSCAASGIIFVENPMGWYRQAPGKERELVATITSGDTTNYADSVKGRFTISRDNAKNTVYLHMNSLKAEDTAVYYCAAERYEDFTEYDYWGQGTQVTVSS
  polyreactivity (PSR sort gate): low polyreactivity

## QVQLVESGGGLVQAGGSLRLSCAASGIIFVRNARGWSRQAPGKERELVAAITGRGVSTYYADSVKGRFTISRDNAKNTVYLQMNSLNQEDTAVYYGAARYSSRGTYPRRYDYWGQGTQVTVSS
  polyreactivity (PSR sort gate): high polyreactivity

## QVQLVESGGGLVQAGGSLRLSCAASGIIFVYYAMGWYRQAPGKERELVAAINWSGGSTYYADSVKGRFTISRDNAKNTVYLQMNSLKPEDTAVYYCAASSYITSDQRFYYWGQGTQVTVSS
  polyreactivity (PSR sort gate): high polyreactivity

## QVQLVESGGGLVQAGGSLRLSCAASGIIFVYYDMGWYRQAPGKERELVASISRGGSTYYADSVKGRFTISRDNAKNTVYLQMNSLKPEDTAVYYCAAVPSYLGYWGQGTQVTVSS
  polyreactivity (PSR sort gate): high polyreactivity

## QVQLVESGGGLVQAGGSLRLSCAASGIIFWKYAMGWYRQAPGKERELVAAISSRGGSTYYADSVKGRLTISRDNAKNTVYLQMNSLKPEDTAVYYCAGEDWYYGFDYWRQGTQVTVSS
  polyreactivity (PSR sort gate): high polyreactivity

## QVQLVESGGGLVQAGGSLRLSCAASGIIFWYNARGWYRQAPGKERELVASISTGGRTYYADSVKGRFTISRDNAKNTVYLQMNSLKPEDTAVYYCAAASRVGFLYYYWGQGTQVTVSS
  polyreactivity (PSR sort gate): low polyreactivity

## QVQLVESGGGLVQAGGSLRLSCAASGIIFWYYAMGWYRQAPGKERELVAAISSGGSTTYADSVKGRFTISRDNAKNTVYLQMNSLKPEDTAVYYCAAVWLSLFKVWVDTHEYDYWGQGTQVTVSS
  polyreactivity (PSR sort gate): low polyreactivity

## QVQLVESGGGLVQAGGSLRLSCAASGIIFWYYAMGWYRQAPGKERELVASIDWSGGSTYYADSVKGRFTISRDNAKNTVYLQMKSLKPEDTAVYDCNAGSDIYWSAATYGYWGQGTQVTVSS
  polyreactivity (PSR sort gate): high polyreactivity

## QVQLVESGGGLVQAGGSLRLSCAASGIIFYDNAMGWYRKAPGKERELVATITRSGDSTYYADSVKGRFTISRDNAKNTVYLQMNSLKPEDTAVYYCAKDTYGVLAYFQVSREYWGQGTQVTVSS
  polyreactivity (PSR sort gate): low polyreactivity

## QVQLVESGGGLVQAGGSLRLSCAASGIIFYFYAMGWSRQAPGKERELVAAISSGGGSTYYADSVKGRFTISRDNAKNTVYLQMNSLKPEDTAVYYCAAKIGRNFDWGQGTQVTVSS
  polyreactivity (PSR sort gate): high polyreactivity

## QVQLVESGGGLVQAGGSLRLSCAASGIIFYKNVMGWYRQAPGKERELVAAINRSGGRTYYADSVKGRFTISRDNAKNTVYLQMNSLKPEDTAVYYCARSGTVFGRTYDYWGQGTQVTVSS
  polyreactivity (PSR sort gate): high polyreactivity

## QVQLVESGGGLVQAGGSLRLSCAASGIIFYLYTIGWYRQAPGKEREFVADISSGTTTYYADSVKGRFTISRDNAKNTVYLQMNSLKPEDTAVYYCNAQYNYYTWKLAYTFDYWGQGTQVTVSS
  polyreactivity (PSR sort gate): high polyreactivity

## QVQLVESGGGLVQAGGSLRLSCAASGIIFYNKAMGWYRQAPGKERELVAAITWSDGSTYYADSVKGRFTISRDNAKTTVYLQMNSMKPEDTAVYYCARRSGDERRDGDYWGQGTQVTVSS
  polyreactivity (PSR sort gate): low polyreactivity

## QVQLVESGGGLVQAGGSLRLSCAASGIIFYPYAMGWYRQAPGKESELVADITSGGGTNYAYSVKGRITISRDNAKNTVYLQMNSLKQEDTAVYYCAAEVRGYHWGTYYEFYYWGQGTQVTVSS
  polyreactivity (PSR sort gate): low polyreactivity

## QVQLVESGGGLVQAGGSLRLSCAASGIIFYRNAMGWYRQAPGKERELVAGITSGGSTYYADSVKGRFTISRDNAKNTVYLQMNSLIPEDTAVYYCAAYYRASQRYLQYGYWGQGTQVNVSS
  polyreactivity (PSR sort gate): high polyreactivity

## QVQLVESGGGLVQAGGSLRLSCAASGIIFYRYALGWYRQAPRTERELVAAISSSGTNTYYADSVKGRFTISRDNAKNTVYLQMNSLKPEDTAVYYCNADTLADRSTYDYWGQGTQVNVSS
  polyreactivity (PSR sort gate): low polyreactivity

## QVQLVESGGGLVQAGGSLRLSCAASGIIFYRYAMGWYRQAPGKERELVATIRRSDGSTYYADSVKGRFTISRDNAKNTVYLQMKSLKPVDTAVYYCAARRPYSSGYDYWGQGSQVTVSS
  polyreactivity (PSR sort gate): high polyreactivity

## QVQLVESGGGLVQAGGSLRLSCAASGIIFYRYAMVWYRQAPGKERELVAAITWSGVSTSYADSVKGRFTISRDNAMNTVYLQMTSLKPEDTAVYYCNKDQGTLYGDMDSWGQGTQVTVSS
  polyreactivity (PSR sort gate): low polyreactivity

## QVQLVESGGGLVQAGGSLRLSCAASGIIFYRYVMGWYRQAHGKERELVAAINNDGASTHYADSVKGRFTISRDNAKNTVYLQMNSLKPEDTAVYYCATRDSLYYRYWSNNYWGQGTQVTVSS
  polyreactivity (PSR sort gate): high polyreactivity

## QVQLVESGGGLVQAGGSLRLSCAASGIIFYTYAMGWYRQAPGKEREFVAGIRWSGSSTYYADSVKGRFTISRDNAKNTVYLQMNCLNPEDTAVYYCATGQPYGPLFSMGYGYWGQVTQVTVSS
  polyreactivity (PSR sort gate): high polyreactivity

## QVQLVESGGGLVQAGGSLRLSCAASGIIFYWNAMGWYRQAPGKERELVAGITRGGSTYYADSVKGRFTISRDNATNTVYLLMNSLKPEDTAVYYCAKRQASRRVSYSRYDYWGQGTQVTVSS
  polyreactivity (PSR sort gate): high polyreactivity

## QVQLVESGGGLVQAGGSLRLSCAASGIIFYWYAMGWYRQAPGKERELVAGIDSDGSTNYADSVKGRFTISRDNAKNTVYLQMNSLKPEDTAVYYCAAVQGYRFYESYYWGQGTQVTVSS
  polyreactivity (PSR sort gate): low polyreactivity

## QVQLVESGGGLVQAGGSLRLSCAASGIIFYYNAMGWYRQAPGKERELVAAINDSGNTYYADSVKGRFTISRDNAKNTVYFQMNSLKPEDTAVYYCAADVWKYWGYDYWGQGTQVTVSS
  polyreactivity (PSR sort gate): low polyreactivity

## QVQLVESGGGLVQAGGSLRLSCAASGIIFYYYAMGSDRQAPGKERELVAAITSSGVRTYYADSVKGRFTISRDNAKNTVYLQMNSLKPEDTAVYYCAASSVLYSRSYDYWGQGTQVTVSS
  polyreactivity (PSR sort gate): high polyreactivity
